Measurements as given in publication PMC7139201 (Developmental cell, 2020).

Target: T1, Vps4^E233Q-3xHA (ATP hydrolysis deficient substrate trap mutant) (S. japonicus, UniProt B6K5C2 1-436, E233Q)
T1 sequence (looked up): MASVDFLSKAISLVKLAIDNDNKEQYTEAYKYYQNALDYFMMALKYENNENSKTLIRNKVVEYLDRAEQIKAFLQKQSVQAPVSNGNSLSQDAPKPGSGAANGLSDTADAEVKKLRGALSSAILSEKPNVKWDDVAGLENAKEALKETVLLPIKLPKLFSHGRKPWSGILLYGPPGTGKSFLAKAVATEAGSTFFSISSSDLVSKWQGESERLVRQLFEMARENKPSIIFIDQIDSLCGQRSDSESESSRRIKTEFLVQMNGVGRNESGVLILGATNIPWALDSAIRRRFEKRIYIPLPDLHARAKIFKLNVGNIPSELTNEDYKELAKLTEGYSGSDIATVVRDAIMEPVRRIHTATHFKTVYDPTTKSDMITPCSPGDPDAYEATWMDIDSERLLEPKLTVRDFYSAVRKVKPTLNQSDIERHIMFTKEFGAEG
Assay: pull-down

B1: GST-Did4 (natural protein, S. japonicus, UniProt B6K6Y8 1-208, looked up)
chain: MGMFDWIFGKQRSPAEVMRAHQRQLNRAERELDREQLKLDQREKGLIREIKANAKAGNVGAARVQARDLMRLRNSRKRMQNTKTQLQAIGLRLTTVRSSDQMMSSMRSATTLLTRMNRSANLPALTRITQQFERENDMMEQRQDMIDEQFEEGLEDEDEEEADELVDQVLDEIGVSLSQDLPSAAQANTTKADTISSGLNLEDLAHIR
Question: Does B1 bind?
Answer: Result: binds
